According to IntAct's records for PubMed 36931259:

B1: 14-3-3 protein sigma (Homo sapiens), P31947 (parent)
chain: MERASLIQKAKLAEQAERYEDMAAFMKGAVEKGEELSCEERNLLSVAYKNVVGGQRAAWRVLSSIEQKSNEEGSEEKGPEVREYREKVETELQGVCDTVLGLLDSHLIKEAGDAESRVFYLKMKGDYYRYLAEVATGDDKKRIIDSARSAYQEAMDISKKEMPPTNPIRLGLALNFSVFHYEIANSPEEAISLAKTTFDEAMADLHTLSEDSYKDSTLIMQLLRDNLTLWTADNAGEEGGEAPQEPQS
partner: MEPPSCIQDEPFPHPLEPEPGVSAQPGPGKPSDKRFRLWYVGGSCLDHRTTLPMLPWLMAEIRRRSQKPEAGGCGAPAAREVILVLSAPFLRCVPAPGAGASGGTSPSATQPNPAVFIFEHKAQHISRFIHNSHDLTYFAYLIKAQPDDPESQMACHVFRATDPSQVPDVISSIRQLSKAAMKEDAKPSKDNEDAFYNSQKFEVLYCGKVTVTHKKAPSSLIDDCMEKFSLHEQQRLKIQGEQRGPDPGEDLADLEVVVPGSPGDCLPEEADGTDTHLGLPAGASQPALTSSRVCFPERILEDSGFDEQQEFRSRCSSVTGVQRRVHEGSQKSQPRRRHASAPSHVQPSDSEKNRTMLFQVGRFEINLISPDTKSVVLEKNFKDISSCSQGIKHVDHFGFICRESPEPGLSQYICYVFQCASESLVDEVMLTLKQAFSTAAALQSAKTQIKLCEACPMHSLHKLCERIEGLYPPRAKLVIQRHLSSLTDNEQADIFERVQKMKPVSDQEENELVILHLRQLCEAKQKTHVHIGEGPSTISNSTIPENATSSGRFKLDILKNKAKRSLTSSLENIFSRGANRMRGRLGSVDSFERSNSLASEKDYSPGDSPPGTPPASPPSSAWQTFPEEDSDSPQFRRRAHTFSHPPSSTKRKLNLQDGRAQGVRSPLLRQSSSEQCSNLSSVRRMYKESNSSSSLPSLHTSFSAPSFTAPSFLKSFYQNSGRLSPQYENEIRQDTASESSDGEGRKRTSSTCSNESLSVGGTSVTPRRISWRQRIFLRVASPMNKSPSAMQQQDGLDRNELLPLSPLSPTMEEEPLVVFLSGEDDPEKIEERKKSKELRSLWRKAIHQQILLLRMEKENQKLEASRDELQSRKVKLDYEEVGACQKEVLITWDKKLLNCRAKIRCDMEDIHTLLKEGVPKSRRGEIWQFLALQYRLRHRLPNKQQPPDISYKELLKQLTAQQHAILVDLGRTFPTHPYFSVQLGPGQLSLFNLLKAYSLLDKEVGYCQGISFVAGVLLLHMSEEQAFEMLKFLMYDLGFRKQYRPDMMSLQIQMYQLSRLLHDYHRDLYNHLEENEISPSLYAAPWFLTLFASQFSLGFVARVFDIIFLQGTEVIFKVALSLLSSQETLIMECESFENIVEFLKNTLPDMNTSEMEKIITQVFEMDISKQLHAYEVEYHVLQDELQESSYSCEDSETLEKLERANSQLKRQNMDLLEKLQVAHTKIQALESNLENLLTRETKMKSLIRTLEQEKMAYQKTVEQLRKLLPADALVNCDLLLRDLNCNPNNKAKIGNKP
B2: 14-3-3 protein sigma (Homo sapiens), P31947 (parent)
chain: B1 chain
partner: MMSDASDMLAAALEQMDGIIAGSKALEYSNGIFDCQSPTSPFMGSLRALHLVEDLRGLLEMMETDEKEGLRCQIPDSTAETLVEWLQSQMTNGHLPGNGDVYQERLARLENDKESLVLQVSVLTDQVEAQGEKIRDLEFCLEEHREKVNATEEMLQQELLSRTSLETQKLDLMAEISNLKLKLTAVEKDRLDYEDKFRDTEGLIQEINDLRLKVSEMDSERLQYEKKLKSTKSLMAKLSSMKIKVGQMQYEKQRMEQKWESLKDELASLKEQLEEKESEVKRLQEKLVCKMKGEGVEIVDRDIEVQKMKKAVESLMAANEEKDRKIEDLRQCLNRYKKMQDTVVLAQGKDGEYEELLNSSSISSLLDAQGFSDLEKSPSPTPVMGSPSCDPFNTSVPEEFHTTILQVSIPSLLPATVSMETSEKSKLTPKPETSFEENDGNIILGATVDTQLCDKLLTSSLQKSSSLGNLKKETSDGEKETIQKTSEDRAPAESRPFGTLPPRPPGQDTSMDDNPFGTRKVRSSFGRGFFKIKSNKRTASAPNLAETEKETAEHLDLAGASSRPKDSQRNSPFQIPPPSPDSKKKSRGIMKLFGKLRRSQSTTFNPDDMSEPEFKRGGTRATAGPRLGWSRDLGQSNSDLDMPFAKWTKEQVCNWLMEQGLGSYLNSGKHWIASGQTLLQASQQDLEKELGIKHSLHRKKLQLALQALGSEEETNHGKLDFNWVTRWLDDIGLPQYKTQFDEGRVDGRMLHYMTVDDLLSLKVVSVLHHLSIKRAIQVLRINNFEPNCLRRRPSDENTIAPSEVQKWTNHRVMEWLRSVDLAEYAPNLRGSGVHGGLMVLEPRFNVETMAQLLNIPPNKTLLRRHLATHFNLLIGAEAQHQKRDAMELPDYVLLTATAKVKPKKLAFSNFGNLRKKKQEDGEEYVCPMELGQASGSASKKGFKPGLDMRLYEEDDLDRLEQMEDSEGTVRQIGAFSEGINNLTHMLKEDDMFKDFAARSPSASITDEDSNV
B3: Serine/arginine-rich splicing factor 10 (Homo sapiens), O75494 (parent)
chain: MSRYLRPPNTSLFVRNVADDTRSEDLRREFGRYGPIVDVYVPLDFYTRRPRGFAYVQFEDVRDAEDALHNLDRKWICGRQIEIQFAQGDRKTPNQMKAKEGRNVYSSSRYDDYDRYRRSRSRSYERRRSRSRSFDYNYRRSYSPRNSRPTGRPRRSRSHSDNDRFKHRNRSFSRSKSNSRSRSKSQPKKEMKAKSRSRSASHTKTRGTSKTDSKTHYKSGSRYEKESRKKEPPRSKSQSRSQSRSRSKSRSRSWTSPKSSGH
partner: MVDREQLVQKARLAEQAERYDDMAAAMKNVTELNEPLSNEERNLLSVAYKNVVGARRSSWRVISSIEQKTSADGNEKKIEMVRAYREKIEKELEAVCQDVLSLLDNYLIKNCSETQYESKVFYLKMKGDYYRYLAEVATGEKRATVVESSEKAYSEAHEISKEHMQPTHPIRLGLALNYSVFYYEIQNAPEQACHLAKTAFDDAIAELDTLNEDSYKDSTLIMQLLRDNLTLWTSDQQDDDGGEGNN
B4: 14-3-3 protein sigma (Homo sapiens), P31947 (parent)
chain: B1 chain
partner: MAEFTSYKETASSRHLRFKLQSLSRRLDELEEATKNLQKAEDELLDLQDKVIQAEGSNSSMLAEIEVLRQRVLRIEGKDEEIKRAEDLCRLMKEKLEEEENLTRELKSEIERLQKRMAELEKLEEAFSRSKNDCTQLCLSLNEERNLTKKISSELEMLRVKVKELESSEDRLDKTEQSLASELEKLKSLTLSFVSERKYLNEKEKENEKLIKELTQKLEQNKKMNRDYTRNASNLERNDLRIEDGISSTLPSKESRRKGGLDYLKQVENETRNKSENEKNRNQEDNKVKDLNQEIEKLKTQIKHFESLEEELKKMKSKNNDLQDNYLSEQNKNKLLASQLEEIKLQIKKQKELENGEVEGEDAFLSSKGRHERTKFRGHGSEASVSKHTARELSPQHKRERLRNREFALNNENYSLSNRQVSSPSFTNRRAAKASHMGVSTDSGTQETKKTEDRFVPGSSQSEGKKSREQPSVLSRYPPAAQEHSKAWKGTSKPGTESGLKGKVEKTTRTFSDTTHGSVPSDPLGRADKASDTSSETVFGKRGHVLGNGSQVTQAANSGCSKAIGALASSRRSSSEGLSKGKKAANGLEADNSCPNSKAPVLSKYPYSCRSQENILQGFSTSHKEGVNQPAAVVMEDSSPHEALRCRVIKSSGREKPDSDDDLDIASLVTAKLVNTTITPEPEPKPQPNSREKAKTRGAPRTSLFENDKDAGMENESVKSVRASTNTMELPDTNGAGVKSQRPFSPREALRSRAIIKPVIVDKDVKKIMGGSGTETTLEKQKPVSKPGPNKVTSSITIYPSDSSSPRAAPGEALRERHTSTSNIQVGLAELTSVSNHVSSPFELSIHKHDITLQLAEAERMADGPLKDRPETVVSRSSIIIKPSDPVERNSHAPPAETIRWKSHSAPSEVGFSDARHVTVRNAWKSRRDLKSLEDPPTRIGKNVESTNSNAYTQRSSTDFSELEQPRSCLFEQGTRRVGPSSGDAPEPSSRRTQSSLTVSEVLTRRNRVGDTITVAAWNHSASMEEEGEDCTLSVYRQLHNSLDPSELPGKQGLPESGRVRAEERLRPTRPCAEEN
B5: 14-3-3 protein sigma (Homo sapiens), P31947 (parent)
chain: B1 chain
partner: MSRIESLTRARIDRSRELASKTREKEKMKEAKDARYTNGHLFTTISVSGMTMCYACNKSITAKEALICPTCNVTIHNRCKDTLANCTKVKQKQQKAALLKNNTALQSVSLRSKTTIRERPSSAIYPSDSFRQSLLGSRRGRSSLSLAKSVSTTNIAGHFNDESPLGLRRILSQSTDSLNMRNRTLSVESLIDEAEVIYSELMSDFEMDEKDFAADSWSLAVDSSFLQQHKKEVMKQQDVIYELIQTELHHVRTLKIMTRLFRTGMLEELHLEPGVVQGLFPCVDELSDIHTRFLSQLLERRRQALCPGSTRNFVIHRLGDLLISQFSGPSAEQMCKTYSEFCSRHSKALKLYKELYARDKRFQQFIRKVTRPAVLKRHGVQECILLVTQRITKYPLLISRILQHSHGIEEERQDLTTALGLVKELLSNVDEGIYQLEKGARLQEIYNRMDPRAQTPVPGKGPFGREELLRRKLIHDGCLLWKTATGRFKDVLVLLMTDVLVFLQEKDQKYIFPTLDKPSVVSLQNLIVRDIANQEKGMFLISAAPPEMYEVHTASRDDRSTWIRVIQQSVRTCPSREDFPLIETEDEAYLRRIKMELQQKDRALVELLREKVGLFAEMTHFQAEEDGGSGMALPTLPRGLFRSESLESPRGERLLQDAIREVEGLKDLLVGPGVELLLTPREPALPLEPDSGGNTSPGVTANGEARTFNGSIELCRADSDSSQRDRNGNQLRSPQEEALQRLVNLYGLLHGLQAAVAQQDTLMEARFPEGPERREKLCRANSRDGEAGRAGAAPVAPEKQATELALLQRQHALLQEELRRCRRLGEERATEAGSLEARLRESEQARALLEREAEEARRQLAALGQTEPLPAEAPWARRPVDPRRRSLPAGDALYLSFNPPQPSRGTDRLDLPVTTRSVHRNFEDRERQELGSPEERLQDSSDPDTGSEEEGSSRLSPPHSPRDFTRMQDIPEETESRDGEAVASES

Variants of: B1
Settings: with tbcd4_human TBC1D4, O60343

| Variant | effect of a mutation on the interaction |
| --- | --- |
| MERASLIQKAKLAEQAERYEDMAAFMKGAVEKGEELSCEERNLLSVAYENVVGGQEAAWRVLSSIEQKSNEEGSEEKGPEVREYREKVETELQGVCDTVLGLLDSHLIKEAGDAESRVFYLKMKGDYYRYLAEVATGDDKKRIIDSARSAYQEAMDISKKEMPPTNPIRLGLALNFSDFHYEIANSPEEAISLAKTTFDEAMADLHTLSEDSYKDSTLIMQLLRDNLTLWTADNAGEEGGEAPQEPQS [K49E;R56E;V178D] | decreasing interaction strength |

Variants of: B2
Settings: with lipb1_human PPFIBP1, Q86W92

| Variant | effect of a mutation on the interaction |
| --- | --- |
| MERASLIQKAKLAEQAERYEDMAAFMKGAVEKGEELSCEERNLLSVAYENVVGGQEAAWRVLSSIEQKSNEEGSEEKGPEVREYREKVETELQGVCDTVLGLLDSHLIKEAGDAESRVFYLKMKGDYYRYLAEVATGDDKKRIIDSARSAYQEAMDISKKEMPPTNPIRLGLALNFSDFHYEIANSPEEAISLAKTTFDEAMADLHTLSEDSYKDSTLIMQLLRDNLTLWTADNAGEEGGEAPQEPQS [K49E;R56E;V178D] | decreasing interaction strength |

Variants of: B3
Settings: with 1433g_human YWHAG

| Variant | effect of a mutation on the interaction |
| --- | --- |
| S121A;S123A;S131A;S133A;S143A;S158A;S160A;S199A;S201A;S249A;S253A;T255A | disrupting interaction strength |

Variants of: B4
Settings: with luzp1_human LUZP1, Q86V48

| Variant | effect of a mutation on the interaction |
| --- | --- |
| MERASLIQKAKLAEQAERYEDMAAFMKGAVEKGEELSCEERNLLSVAYENVVGGQEAAWRVLSSIEQKSNEEGSEEKGPEVREYREKVETELQGVCDTVLGLLDSHLIKEAGDAESRVFYLKMKGDYYRYLAEVATGDDKKRIIDSARSAYQEAMDISKKEMPPTNPIRLGLALNFSDFHYEIANSPEEAISLAKTTFDEAMADLHTLSEDSYKDSTLIMQLLRDNLTLWTADNAGEEGGEAPQEPQS [K49E;R56E;V178D] | decreasing interaction strength |

Variants of: B5
Settings: with arhg2_human ARHGEF2, Q92974

| Variant | effect of a mutation on the interaction |
| --- | --- |
| MERASLIQKAKLAEQAERYEDMAAFMKGAVEKGEELSCEERNLLSVAYENVVGGQEAAWRVLSSIEQKSNEEGSEEKGPEVREYREKVETELQGVCDTVLGLLDSHLIKEAGDAESRVFYLKMKGDYYRYLAEVATGDDKKRIIDSARSAYQEAMDISKKEMPPTNPIRLGLALNFSDFHYEIANSPEEAISLAKTTFDEAMADLHTLSEDSYKDSTLIMQLLRDNLTLWTADNAGEEGGEAPQEPQS [K49E;R56E;V178D] | decreasing interaction strength |
